The results in this text go back to US20230077716A1.

The target in this test is NA of B/New York/PV00094/17 (Y), on purified virus (Influenza B virus B/New York/PV00094/17).

B1: 2H09 monoclonal antibody (BNA-mAb) (antibody, V domains shown)
VH: EVQLVESGGGLVQPGGSLRLSCAASGVTLDNYWVHWVRQVPGKGLVWVSRINADGTSKTYADSVKGRFTISRDTTRNTLFLQMNSLRGDDTALYFCARGGLYSSDAFDVWGQGTMVTVSS
VL: QSALTQPPSASGSPGQSVTISCTGTSWDVGRYNHVSWYQHHPGKAHKLIIYEVNRRPSGVPDRFSGSKSANTASLTVSGLQAEDEADYYCSSYTGNNVAVFGGGTKLTVL
In turn, B1 showed a percent competition of 90%.

B2: 3C01 monoclonal antibody (BNA-mAb) (antibody, V domains shown)
VH: EVQLVESGGGLVQPGGSLRLSCAASGFPFSHYYMHWVRRAPGKGLVWVSRIYSDGTSSSYGDSVKGRFTISRDNAKNILYLQMNSLRAEDSATYYCCRGGYYSLDGFDFWGQGTMVTVSS
VL: DIQMTQSPLSLSVSEGDRVTITCRASQGIGNDLGWYQLKPGKAPKRLIYGASSLQSGVPSRFSGSGSGTEFTLTISSLQPEDFATYFCLQHSSFPYTFGQGTKVEIK
B2 registered a percent competition of 90%.
